Values joined by “and” are separate entries in the source; they are usually repeats but may differ in a detail not shown here. Equal values may be shown once.
Experiments:
人TNFα [1] = biological target: T1, 人TNFα (human, UniProt P01375 77-233); experiment: SPR (Biacore), TNFa coupled to the chip, antibody as analyte
T1 construct: also called 人TNFa; hTNFa

人TNFα [2] = biological target: T1, 人TNFα; experiment: cell-based or functional assay
人TNFα [3] = biological target: T1, 人TNFα; experiment: cell-based or functional assay; remark: listed apart in the source
人TNFα [4] = biological target: T1, 人TNFα; experiment: ELISA, plate coated at 0.1 ug/well, antibody dilution series

T1 sequence (P01375 77-233 limits assumed): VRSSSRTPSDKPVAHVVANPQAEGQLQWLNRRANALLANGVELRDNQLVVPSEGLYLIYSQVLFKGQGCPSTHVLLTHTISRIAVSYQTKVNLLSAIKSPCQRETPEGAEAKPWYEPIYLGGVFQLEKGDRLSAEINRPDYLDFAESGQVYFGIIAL

B1: 抗人TNFa抗体-01 (antibody, human IgG1, kappa)
heavy: not shown
light: EIVLTQSPDFQSVTPKEKVTITCRASQFVGYSIHWYQQKPDQSPKLLIKYASESRSGVPSRFSGSGSGTDFTLTINSLEAEDAATYYCQQSHSWHFTFGQGTKLEIKRTVAAPSVFIFPPSDEQLKSGTASVVCLLNNFYPREAKVQWKVDNALQSGNSQESVTEQDSKDSTYSLSSTLTLSKADYEKHKVYACEVTHQGLSSPVTKSFNRGEC
notes: also called 抗人TNFa-01; pCI-TNF-01
Kd (人TNFα [1]): 0.326 nM
koff (人TNFα [1]): 0.000185 s⁻¹
kon (人TNFα [1]): 568000 M⁻¹ s⁻¹
IC50(pM), L929细胞保护试验 (人TNFα [2]): 0.56 pM and 0.938 pM and 0.46 pM
IC50(pM), L929细胞保护试验, 平均值 (人TNFα [2]): 0.51 pM
IC50 relative to humira, L929细胞保护试验 (人TNFα [3]): ~0.2 fold of humira IC50
neutralising activity relative to humira, L929细胞保护试验 (人TNFα [3]): ~5 fold of humira
lowest detected concentration relative to humira (人TNFα [4]): 0.5 fold of humira

B2: 抗人TNFa抗体-02 (antibody, human IgG1, kappa)
heavy: not shown
light: EIVLTQSPDFQSVTPKEKVTITCRASQFVGYSIHWYQQKPDQSPKLLIKYASESRSGVPSRFSGSGSGTDFTLTINSLEAEDAATYYCQQSHSWHFTFGQGTKLEIKRTVAAPSVFIFPPSDEQLKSGTASVVCLLNNFYPREAKVQWKVDNALQSGNSQESVTEQDSKDSTYSLSSTLTLSKADYEKHKVYACEVTHQGLSSPVTKSFNRGEC
notes: Full-length human IgG1 made in CHO cells; Same doubt about plain or PEGylated form as for m1; also called 抗人TNFa-02; pCI-TNF-02
Kd (人TNFα [1]): 0.33 nM
koff (人TNFα [1]): 0.000188 s⁻¹
kon (人TNFα [1]): 571000 M⁻¹ s⁻¹
IC50(pM), L929细胞保护试验 (人TNFα [2]): 0.34 pM and 0.25 pM and 0.234 pM
IC50(pM), L929细胞保护试验, 平均值 (人TNFα [2]): 0.275 pM
IC50 relative to humira, L929细胞保护试验 (人TNFα [3]): ~0.1 fold of humira IC50
neutralising activity relative to humira, L929细胞保护试验 (人TNFα [3]): ~10 fold of humira
lowest detected concentration relative to humira (人TNFα [4]): 0.5 fold of humira
